Test results from IntAct's records for PubMed 25910212.

What was measured:
cap2_human CAP2 [1] = molecular target: cap2_human CAP2 (UniProt P40123)
cap2_human CAP2 [2] = molecular target: cap2_human CAP2 (UniProt P40123); remark: listed apart in the source
cof2_human CFL2 = cof2_human CFL2 (UniProt Q9Y281)
KRT40 = KRT40 (UniProt Q6A162)
tpp2_human TPP2 = tpp2_human TPP2 (UniProt P29144)
CAGE1, Q8TC20-4 [3] = molecular target: CAGE1, Q8TC20-4
kxdl1_human KXD1 = kxdl1_human KXD1 (UniProt Q9BQD3)
ifit3_human IFIT3 [4] = molecular target: ifit3_human IFIT3 (UniProt O14879)
syce1_human SYCE1 [5] = molecular target: syce1_human SYCE1 (UniProt Q8N0S2)
CAGE1, Q8TC20-4 [6] = molecular target: CAGE1, Q8TC20-4; remark: listed apart in the source
tfpt_human TFPT = tfpt_human TFPT (UniProt P0C1Z6)
ifit3_human IFIT3 [7] = molecular target: ifit3_human IFIT3 (UniProt O14879); remark: listed apart in the source
md1l1_human MAD1L1 = md1l1_human MAD1L1 (UniProt Q9Y6D9)
goga2_human GOLGA2 = goga2_human GOLGA2 (UniProt Q08379)
syce1_human SYCE1 [8] = molecular target: syce1_human SYCE1 (UniProt Q8N0S2); remark: listed apart in the source

Chain of Tropomyosin alpha-1 chain (Homo sapiens), P09493-10 D175N (P09493 other isoform, or with tags, fused parts or gaps D175N): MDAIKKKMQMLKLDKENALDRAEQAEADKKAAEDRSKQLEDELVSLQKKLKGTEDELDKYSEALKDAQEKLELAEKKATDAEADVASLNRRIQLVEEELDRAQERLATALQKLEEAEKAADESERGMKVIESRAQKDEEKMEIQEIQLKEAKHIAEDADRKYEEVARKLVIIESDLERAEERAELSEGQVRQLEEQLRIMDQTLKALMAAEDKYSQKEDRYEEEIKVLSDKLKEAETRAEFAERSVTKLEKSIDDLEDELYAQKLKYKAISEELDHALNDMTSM
Chain of Tropomyosin alpha-1 chain (Homo sapiens), P09493-10 V95A (P09493 other isoform, or with tags, fused parts or gaps V95A): as the sequence (P09493 other isoform, or with tags, fused parts or gaps D175N) above
Chain of ifit3_human IFIT3 (O14879 whole entry): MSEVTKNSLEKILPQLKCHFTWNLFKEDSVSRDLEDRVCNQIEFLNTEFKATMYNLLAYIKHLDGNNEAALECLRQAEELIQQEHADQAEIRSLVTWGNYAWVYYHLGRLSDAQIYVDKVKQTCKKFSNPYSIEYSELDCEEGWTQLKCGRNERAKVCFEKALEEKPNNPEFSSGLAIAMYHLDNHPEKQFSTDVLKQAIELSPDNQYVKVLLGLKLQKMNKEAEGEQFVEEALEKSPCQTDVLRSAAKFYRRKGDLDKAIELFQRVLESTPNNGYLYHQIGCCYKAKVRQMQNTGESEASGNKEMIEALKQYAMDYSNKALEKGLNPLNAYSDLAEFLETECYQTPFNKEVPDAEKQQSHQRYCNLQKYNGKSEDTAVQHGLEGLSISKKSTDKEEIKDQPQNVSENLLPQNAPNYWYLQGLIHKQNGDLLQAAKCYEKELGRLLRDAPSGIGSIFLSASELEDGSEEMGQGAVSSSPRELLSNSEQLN
Chain of CAGE1, Q8TC20-4 (Q8TC20 other isoform, or with tags, fused parts or gaps): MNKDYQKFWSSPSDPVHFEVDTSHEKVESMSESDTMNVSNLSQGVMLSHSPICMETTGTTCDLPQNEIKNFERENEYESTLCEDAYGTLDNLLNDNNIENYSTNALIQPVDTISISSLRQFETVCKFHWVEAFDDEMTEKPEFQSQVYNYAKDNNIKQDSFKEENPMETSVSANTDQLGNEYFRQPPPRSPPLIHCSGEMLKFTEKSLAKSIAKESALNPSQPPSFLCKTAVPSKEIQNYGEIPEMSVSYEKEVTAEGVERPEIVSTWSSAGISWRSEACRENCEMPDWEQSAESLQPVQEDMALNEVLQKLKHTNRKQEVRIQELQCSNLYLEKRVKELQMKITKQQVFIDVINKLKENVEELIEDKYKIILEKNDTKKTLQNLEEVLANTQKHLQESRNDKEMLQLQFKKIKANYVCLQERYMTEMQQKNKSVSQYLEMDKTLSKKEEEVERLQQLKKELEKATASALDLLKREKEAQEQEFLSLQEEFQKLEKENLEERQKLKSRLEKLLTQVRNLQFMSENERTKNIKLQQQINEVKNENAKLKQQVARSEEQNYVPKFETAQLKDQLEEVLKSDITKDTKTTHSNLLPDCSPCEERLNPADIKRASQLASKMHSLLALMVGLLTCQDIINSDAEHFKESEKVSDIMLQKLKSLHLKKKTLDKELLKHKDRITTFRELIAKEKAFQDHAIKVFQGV
Chain of syce1_human SYCE1 (Q8N0S2 whole entry): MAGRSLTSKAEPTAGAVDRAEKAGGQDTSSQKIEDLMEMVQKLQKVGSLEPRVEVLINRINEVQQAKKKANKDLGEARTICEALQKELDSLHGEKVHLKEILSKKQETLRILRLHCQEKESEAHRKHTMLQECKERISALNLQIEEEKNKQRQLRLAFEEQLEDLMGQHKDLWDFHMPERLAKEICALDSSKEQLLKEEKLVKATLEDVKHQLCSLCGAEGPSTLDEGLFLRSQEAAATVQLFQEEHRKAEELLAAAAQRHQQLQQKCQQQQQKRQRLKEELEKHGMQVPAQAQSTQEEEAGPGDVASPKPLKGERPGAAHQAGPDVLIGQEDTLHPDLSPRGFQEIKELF
Chain of TNNT1, P13805-3 (P13805 other isoform, or with tags, fused parts or gaps): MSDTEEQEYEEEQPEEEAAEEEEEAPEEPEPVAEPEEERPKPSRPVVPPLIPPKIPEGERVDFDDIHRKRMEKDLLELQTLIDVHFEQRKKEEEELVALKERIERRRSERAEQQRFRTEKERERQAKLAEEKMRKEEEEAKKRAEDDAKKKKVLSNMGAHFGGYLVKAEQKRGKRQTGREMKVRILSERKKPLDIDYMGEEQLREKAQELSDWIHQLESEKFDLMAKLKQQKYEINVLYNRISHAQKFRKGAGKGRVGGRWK
Chain of tfpt_human TFPT (P0C1Z6 whole entry): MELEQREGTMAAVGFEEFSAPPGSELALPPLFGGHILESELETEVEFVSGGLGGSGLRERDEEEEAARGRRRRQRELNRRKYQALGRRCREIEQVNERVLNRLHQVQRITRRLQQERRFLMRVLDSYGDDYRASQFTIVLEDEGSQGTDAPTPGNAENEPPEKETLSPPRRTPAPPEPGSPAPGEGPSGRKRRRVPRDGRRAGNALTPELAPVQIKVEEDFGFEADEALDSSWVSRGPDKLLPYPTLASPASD
Chain of md1l1_human MAD1L1 (Q9Y6D9 whole entry): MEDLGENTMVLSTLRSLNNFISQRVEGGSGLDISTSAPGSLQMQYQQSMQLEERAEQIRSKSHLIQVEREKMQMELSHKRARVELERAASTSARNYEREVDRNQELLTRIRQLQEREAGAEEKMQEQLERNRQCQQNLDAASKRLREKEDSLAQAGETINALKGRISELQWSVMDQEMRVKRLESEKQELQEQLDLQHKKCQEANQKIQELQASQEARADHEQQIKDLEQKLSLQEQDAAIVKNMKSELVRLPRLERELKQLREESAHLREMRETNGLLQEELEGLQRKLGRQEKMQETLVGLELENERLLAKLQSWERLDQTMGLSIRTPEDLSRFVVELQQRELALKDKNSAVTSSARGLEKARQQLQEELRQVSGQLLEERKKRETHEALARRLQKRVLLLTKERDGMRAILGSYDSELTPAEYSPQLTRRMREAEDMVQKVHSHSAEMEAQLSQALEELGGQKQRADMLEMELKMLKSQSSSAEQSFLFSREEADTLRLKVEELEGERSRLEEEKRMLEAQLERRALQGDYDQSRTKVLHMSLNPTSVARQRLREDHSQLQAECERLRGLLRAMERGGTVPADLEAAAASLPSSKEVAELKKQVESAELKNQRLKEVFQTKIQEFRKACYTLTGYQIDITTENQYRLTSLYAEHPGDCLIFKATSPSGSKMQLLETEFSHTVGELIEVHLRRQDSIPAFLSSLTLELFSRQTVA
Chain of goga2_human GOLGA2 (Q08379 whole entry): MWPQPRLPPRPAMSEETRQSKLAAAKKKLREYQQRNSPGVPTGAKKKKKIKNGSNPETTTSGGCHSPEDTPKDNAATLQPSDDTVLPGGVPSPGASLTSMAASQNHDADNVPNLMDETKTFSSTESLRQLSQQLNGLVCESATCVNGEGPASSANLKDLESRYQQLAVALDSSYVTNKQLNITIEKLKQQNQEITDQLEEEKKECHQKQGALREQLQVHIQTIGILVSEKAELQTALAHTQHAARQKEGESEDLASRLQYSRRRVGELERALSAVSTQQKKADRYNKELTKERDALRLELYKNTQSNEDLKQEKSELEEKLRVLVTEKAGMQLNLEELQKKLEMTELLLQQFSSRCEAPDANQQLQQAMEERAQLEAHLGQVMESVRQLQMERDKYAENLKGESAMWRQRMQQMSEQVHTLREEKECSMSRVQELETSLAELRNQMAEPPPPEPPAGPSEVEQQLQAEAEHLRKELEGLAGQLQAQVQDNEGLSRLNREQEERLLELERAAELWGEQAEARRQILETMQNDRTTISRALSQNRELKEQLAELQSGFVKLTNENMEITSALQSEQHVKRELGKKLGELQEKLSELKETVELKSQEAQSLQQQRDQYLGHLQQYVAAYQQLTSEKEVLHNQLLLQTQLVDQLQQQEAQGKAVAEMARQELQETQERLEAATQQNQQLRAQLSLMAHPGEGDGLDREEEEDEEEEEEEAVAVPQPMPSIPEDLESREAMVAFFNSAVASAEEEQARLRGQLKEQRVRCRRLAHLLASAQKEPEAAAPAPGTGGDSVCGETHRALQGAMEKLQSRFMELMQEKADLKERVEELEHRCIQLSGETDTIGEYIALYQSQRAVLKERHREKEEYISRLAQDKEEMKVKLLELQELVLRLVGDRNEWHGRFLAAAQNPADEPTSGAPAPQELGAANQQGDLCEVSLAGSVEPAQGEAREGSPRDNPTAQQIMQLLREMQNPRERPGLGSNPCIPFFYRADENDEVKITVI
Chain of kxdl1_human KXD1 (Q9BQD3 whole entry): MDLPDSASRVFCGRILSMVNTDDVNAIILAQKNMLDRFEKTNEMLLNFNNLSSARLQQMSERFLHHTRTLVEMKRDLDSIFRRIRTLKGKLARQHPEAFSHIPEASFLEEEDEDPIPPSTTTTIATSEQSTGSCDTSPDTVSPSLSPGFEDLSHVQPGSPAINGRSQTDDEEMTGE
Chain of MTUS2, Q5JR59-3 (Q5JR59 other isoform, or with tags, fused parts or gaps): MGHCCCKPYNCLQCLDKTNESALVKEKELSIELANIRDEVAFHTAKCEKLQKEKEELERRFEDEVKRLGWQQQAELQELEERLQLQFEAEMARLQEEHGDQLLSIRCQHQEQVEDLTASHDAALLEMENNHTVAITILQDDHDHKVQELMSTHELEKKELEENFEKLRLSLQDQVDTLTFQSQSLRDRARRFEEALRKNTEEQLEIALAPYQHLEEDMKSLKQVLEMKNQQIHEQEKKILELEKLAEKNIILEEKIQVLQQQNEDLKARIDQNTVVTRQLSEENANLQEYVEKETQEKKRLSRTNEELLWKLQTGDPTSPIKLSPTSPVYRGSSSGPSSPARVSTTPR
Chain of Cytochrome c (Homo sapiens), P99999 G42S (P99999 whole entry G42S): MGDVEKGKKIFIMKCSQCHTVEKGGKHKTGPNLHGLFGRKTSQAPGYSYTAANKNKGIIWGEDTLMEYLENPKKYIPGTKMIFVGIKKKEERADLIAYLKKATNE

Substance	effect of a mutation on the interaction (kxdl1_human KXD1)	effect of a mutation on the interaction (TNNT1, P13805-3)	effect of a mutation on the interaction (syce1_human SYCE1 [5])	effect of a mutation on the interaction (tfpt_human TFPT)	effect of a mutation on the interaction (ifit3_human IFIT3 [7])	effect of a mutation on the interaction (md1l1_human MAD1L1)	effect of a mutation on the interaction (goga2_human GOLGA2)	effect of a mutation on the interaction (CAGE1, Q8TC20-4 [6])	other results
Actin, cytoplasmic 1 (Homo sapiens) (from UniProt P60709) R183W									effect of a mutation on the interaction (cap2_human CAP2 [1]): causing an interaction; effect of a mutation on the interaction (cap2_human CAP2 [2]): with no effect; effect of a mutation on the interaction (cof2_human CFL2): with no effect
Cytochrome c (Homo sapiens), P99999 G42S									effect of a mutation on the interaction (KRT40): with no effect
DNA polymerase beta (Homo sapiens) (from UniProt P06746) R137Q									effect of a mutation on the interaction (tpp2_human TPP2): with no effect
Tropomyosin alpha-1 chain (Homo sapiens), P09493-10 D175N	with no effect	with no effect	with no effect	with no effect	with no effect	with no effect	with no effect	with no effect	effect of a mutation on the interaction (CAGE1, Q8TC20-4 [3]): causing an interaction; effect of a mutation on the interaction (ifit3_human IFIT3 [4]): causing an interaction
Tropomyosin alpha-1 chain (Homo sapiens), P09493-10 V95A	with no effect	with no effect	disrupting interaction strength	with no effect	with no effect	with no effect	disrupting interaction strength	with no effect	effect of a mutation on the interaction (syce1_human SYCE1 [8]): with no effect
Zinc finger protein 624 (Homo sapiens), Q9P2J8 K135N									effect of a mutation on the interaction (MTUS2, Q5JR59-3): with no effect
